{"source": "patent US20130123481A1", "about": "“MODIFIED NUCLEOSIDES, NUCLEOTIDES, AND NUCLEIC ACIDS, AND USES THEREOF” (MODERNA THERAPEUTICS, priority 2011, published 2013)", "key": {"[1]": {"test_system": "peripheral blood mononuclear cells (PBMC), TNF-alpha", "experiment": "In Vitro PBMC Studies: Percent modification - TNF-alpha expression", "format": "cell-based, human", "protocol": "(§1) The supernatant was harvested and run by ELISA 22 hours after transfection to determine the protein expression."}, "[2]": {"test_system": "peripheral blood mononuclear cells (PBMC)", "experiment": "In Vitro PBMC Studies: Percent modification - G-CSF expression", "format": "cell-based, human", "conditions": "for G-CSF Expression: 480 ng mRNA", "protocol": "480 ng of G-CSF mRNA modified with 5-methylcytosine (5mC) and pseudouridine (pseudoU) or unmodified G-CSF mRNA was transfected with 0.4 uL of Lipofectamine 2000 into peripheral blood mononuclear cells (PBMC) from three normal blood donors (D1, D2, and D3). […] The supernatant was harvested and run by ELISA 22 hours after transfection to determine the protein expression. The expression of IFN-alpha and TNF-alpha may be a secondary effect from the transfection of the G-CSF mRNA."}, "[3]": {"test_system": "peripheral blood mononuclear cells (PBMC), IFN-alpha", "experiment": "In Vitro PBMC Studies: Percent modification - IFN-alpha expression", "format": "cell-based, human", "protocol": "as §1"}, "[4]": {"test_system": "peripheral blood mononuclear cells (PBMC)", "experiment": "Modified RNA transfected in PBMC (0.1-100% modification) - G-CSF expression", "format": "cell-based, human", "protocol": "500 ng of G-CSF mRNA modified with 5-methylcytosine (5mC) and pseudouridine (pseudoU) or unmodified G-CSF mRNA was transfected with 0.4 uL of Lipofectamine 2000 into peripheral blood mononuclear cells (PBMC) from three normal blood donors (D1, D2, and D3). […] The supernatant was harvested 6 hours and 18 hours after transfection and run by ELISA to determine the protein expression. The expression of G-CSF, IFN-alpha, and TNF-alpha for Donor 1 is shown in Table 10, Donor 2 is shown in Table 11 and Donor 3 is shown in Table 12."}, "[5]": {"test_system": "mice", "experiment": "Intravenous Administration - neutrophil count", "format": "in vivo, mouse", "conditions": "for Neutrophil: I.V. 50 ug RNA at days 0, 2 and 4, 10% lipoplex", "protocol": "Neutrophils were measured at days 1, 5 and 8. Controls included non-specific mammalian RNA or the formulation buffer alone (F.Buffer). The mice were bled at days 1, 5 and 8 to determine the effect of mRNA-encoded human G-CSF to increase neutrophil count. The dosing regimen is shown in Table 21 as are the resulting neutrophil counts (thousands/uL; K/uL).\nIn Table 21, an asterisk (*) indicates statistical significance at p<0.001 compared to buffer."}}, "data": [{"molecule": "100% modification: G-CSF mRNA (SEQ ID NO: 1, Cap1) completely modified with 5mC and pseudoU (nucleic acid, listed as Homo Sapiens, Cap1; 5-methylcytidine and pseudouridine) GGGAAAUAAGAGAGAAAAGAAGAGUAAGAAGAAAUAUAAGAGCCACCAUGGCCGGUCCCGCGACCCAAAGCCCCAUGAAACUUAUGGCCCUGCAGUUGCUGCUUUGGCACUCGGCCCUCUGGACAGUCCAAGAAGCGACUCCUCUCGGACCUGCCUCAUCGUUGCCGCAGUCAUUCCUUUUGAAGUGUCUGGAGCAGGUGCGAAAGAUUCAGGGCGAUGGAGCCGCACUCCAAGAGAAGCUCUGCGCGACAUACAAACUUUGCCAUCCCGAGGAGCUCGUACUGCUCGGGCACAGCUUGGGGAUUCCCUGGGCUCCUCUCUCGUCCUGUCCGUCGCAGGCUUUGCAGUUGGCAGGGUGCCUUUCCCAGCUCCACUCCGGUUUGUUCUUGUAUCAGGGACUGCUGCAAGCCCUUGAGGGAAUCUCGCCAGAAUUGGGCCCGACGCUGGACACGUUGCAGCUCGACGUGGCGGAUUUCGCAACAACCAUCUGGCAGCAGAUGGAGGAACUGGGGAUGGCACCCGCGCUGCAGCCCACGCAGGGGGCAAUGCCGGCCUUUGCGUCCGCGUUUCAGCGCAGGGCGGGUGGAGUCCUCGUAGCGAGCCACCUUCAAUCAUUUUUGGAAGUCUCGUACCGGGUGCUGAGACAUCUUGCGCAGCCGUGAAGCGCUGCCUUCUGCGGGGCUUGCCUUCUGGCCAUGCCCUUCUUCUCUCCCUUGCACCUGUACCUCUUGGUCUUUGAAUAAAGCCUGAGUAGGAAG", "values": [{"measurement": "Average TNF-a", "setting": "[1]", "value": 47, "unit": "pg/mL"}, {"measurement": "ratio of protein/cytokine production relative to natural G-CSF mRNA, TNF-alpha", "setting": "[1]; PBMC, Table 9", "value": 27, "unit": "fold"}, {"measurement": "G-CSF/TNF-alpha (PC ratio)", "setting": "[1]; calculated from Tables 7 and 8", "value": 52}, {"measurement": "G-CSF Expression", "setting": "[2]; PBMC donor D1, 0.4 uL Lipofectamine 2000, ELISA 22 hours after transfection", "value": 1968.9, "unit": "pg/mL"}, {"measurement": "G-CSF Expression", "setting": "[2]; PBMC donor D2, 22 hours after transfection", "value": 2595.6, "unit": "pg/mL"}, {"measurement": "G-CSF Expression", "setting": "[2]; PBMC donor D3, 22 hours after transfection", "value": 2835.7, "unit": "pg/mL"}, {"measurement": "Average G-CSF", "setting": "[2]; average of PBMC donors D1-D3", "value": 2466, "unit": "pg/mL"}, {"measurement": "Average IFN-a", "setting": "[3]", "value": 153, "unit": "pg/mL"}, {"measurement": "ratio of protein/cytokine production relative to natural G-CSF mRNA, IFN-alpha", "setting": "[3]; PBMC, Table 9", "value": 100, "unit": "fold"}, {"measurement": "G-CSF/IFN-alpha (PC ratio)", "setting": "[3]; calculated from Tables 7 and 8", "value": 16}, {"measurement": "G-CSF", "setting": "[4]; PBMC Donor 1, 500 ng mRNA, 6 hours after transfection", "value": 1815, "unit": "pg/mL"}, {"measurement": "G-CSF", "setting": "[4]; PBMC Donor 1, 18 hours after transfection", "value": 2224, "unit": "pg/mL"}, {"measurement": "G-CSF", "setting": "[4]; PBMC Donor 2, 6 hours after transfection", "value": 2184, "unit": "pg/mL"}, {"measurement": "G-CSF", "setting": "[4]; PBMC Donor 2, 18 hours after transfection", "value": 2432, "unit": "pg/mL"}, {"measurement": "G-CSF", "setting": "[4]; PBMC Donor 3, 6 hours after transfection", "value": 6086, "unit": "pg/mL"}, {"measurement": "G-CSF", "setting": "[4]; PBMC Donor 3, 18 hours after transfection", "value": 7549, "unit": "pg/mL"}]}, {"molecule": "G-CSF (no modification): human G-CSF mRNA having no modifications, formulated in 10% lipoplex (RNAIMAX) (nucleic acid, listed as Homo Sapiens, Cap1; polyA tail; lipoplex) GGGAAAUAAGAGAGAAAAGAAGAGUAAGAAGAAAUAUAAGAGCCACCAUGGCCGGUCCCGCGACCCAAAGCCCCAUGAAACUUAUGGCCCUGCAGUUGCUGCUUUGGCACUCGGCCCUCUGGACAGUCCAAGAAGCGACUCCUCUCGGACCUGCCUCAUCGUUGCCGCAGUCAUUCCUUUUGAAGUGUCUGGAGCAGGUGCGAAAGAUUCAGGGCGAUGGAGCCGCACUCCAAGAGAAGCUCUGCGCGACAUACAAACUUUGCCAUCCCGAGGAGCUCGUACUGCUCGGGCACAGCUUGGGGAUUCCCUGGGCUCCUCUCUCGUCCUGUCCGUCGCAGGCUUUGCAGUUGGCAGGGUGCCUUUCCCAGCUCCACUCCGGUUUGUUCUUGUAUCAGGGACUGCUGCAAGCCCUUGAGGGAAUCUCGCCAGAAUUGGGCCCGACGCUGGACACGUUGCAGCUCGACGUGGCGGAUUUCGCAACAACCAUCUGGCAGCAGAUGGAGGAACUGGGGAUGGCACCCGCGCUGCAGCCCACGCAGGGGGCAAUGCCGGCCUUUGCGUCCGCGUUUCAGCGCAGGGCGGGUGGAGUCCUCGUAGCGAGCCACCUUCAAUCAUUUUUGGAAGUCUCGUACCGGGUGCUGAGACAUCUUGCGCAGCCGUGAAGCGCUGCCUUCUGCGGGGCUUGCCUUCUGGCCAUGCCCUUCUUCUCUCCCUUGCACCUGUACCUCUUGGUCUUUGAAUAAAGCCUGAGUAGGAAG", "values": [{"measurement": "Neutrophil", "setting": "[5]; Day 1", "value": 1.88, "unit": "K/uL"}, {"measurement": "Neutrophil", "setting": "[5]; Day 5", "value": 1.95, "unit": "K/uL"}, {"measurement": "Neutrophil", "setting": "[5]; Day 8", "value": 2.09, "unit": "K/uL"}]}, {"molecule": "G-CSF modified mRNA: control modified G-CSF mRNA (SEQ ID NO: 1, Cap 1), fully modified 5-methylcytosine and pseudouridine, 8.4 nM (nucleic acid, listed as Homo Sapiens, Cap1; 5-methylcytosine and pseudouridine) GGGAAAUAAGAGAGAAAAGAAGAGUAAGAAGAAAUAUAAGAGCCACCAUGGCCGGUCCCGCGACCCAAAGCCCCAUGAAACUUAUGGCCCUGCAGUUGCUGCUUUGGCACUCGGCCCUCUGGACAGUCCAAGAAGCGACUCCUCUCGGACCUGCCUCAUCGUUGCCGCAGUCAUUCCUUUUGAAGUGUCUGGAGCAGGUGCGAAAGAUUCAGGGCGAUGGAGCCGCACUCCAAGAGAAGCUCUGCGCGACAUACAAACUUUGCCAUCCCGAGGAGCUCGUACUGCUCGGGCACAGCUUGGGGAUUCCCUGGGCUCCUCUCUCGUCCUGUCCGUCGCAGGCUUUGCAGUUGGCAGGGUGCCUUUCCCAGCUCCACUCCGGUUUGUUCUUGUAUCAGGGACUGCUGCAAGCCCUUGAGGGAAUCUCGCCAGAAUUGGGCCCGACGCUGGACACGUUGCAGCUCGACGUGGCGGAUUUCGCAACAACCAUCUGGCAGCAGAUGGAGGAACUGGGGAUGGCACCCGCGCUGCAGCCCACGCAGGGGGCAAUGCCGGCCUUUGCGUCCGCGUUUCAGCGCAGGGCGGGUGGAGUCCUCGUAGCGAGCCACCUUCAAUCAUUUUUGGAAGUCUCGUACCGGGUGCUGAGACAUCUUGCGCAGCCGUGAAGCGCUGCCUUCUGCGGGGCUUGCCUUCUGGCCAUGCCCUUCUUCUCUCCCUUGCACCUGUACCUCUUGGUCUUUGAAUAAAGCCUGAGUAGGAAG", "values": [{"measurement": "increase in neutrophil count above control at day 5", "setting": "[5]; intravenous administration", "value": "four to five fold increase"}]}]}
